From patent publication US20120039904A1 (Kyowa Kirin, published 2012)
Changes are numbered by the printed parent chain.

Legend:
[1] = molecular target: T1, human ASCT2 (system ASC amino acid transporter 2), endogenous on human tumour cell lines (human, UniProt Q15758 1-541); assay: flow cytometry on KMS-11 cells
T1 construct: Endogenous ASCT2 of cell lines KMS-11 (stated to express ASCT2 mRNA), WiDr and OPM-2; also called SLC1A5; ASCT2 on KMS-11, OPM-2, WiDr cells
T1 sequence: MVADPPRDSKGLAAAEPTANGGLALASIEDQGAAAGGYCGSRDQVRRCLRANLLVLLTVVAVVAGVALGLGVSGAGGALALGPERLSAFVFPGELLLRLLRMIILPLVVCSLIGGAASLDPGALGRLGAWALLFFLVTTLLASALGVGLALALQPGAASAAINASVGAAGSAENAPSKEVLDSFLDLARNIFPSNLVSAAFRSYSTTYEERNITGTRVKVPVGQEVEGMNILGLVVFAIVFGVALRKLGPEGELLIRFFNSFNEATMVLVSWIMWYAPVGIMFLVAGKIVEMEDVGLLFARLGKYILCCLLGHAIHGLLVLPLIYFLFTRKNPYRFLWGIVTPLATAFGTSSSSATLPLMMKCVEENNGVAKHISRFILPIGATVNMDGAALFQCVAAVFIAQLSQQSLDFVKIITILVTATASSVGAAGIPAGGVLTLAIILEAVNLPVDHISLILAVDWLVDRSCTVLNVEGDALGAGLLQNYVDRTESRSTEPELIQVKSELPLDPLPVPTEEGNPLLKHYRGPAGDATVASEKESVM

[2] = molecular target: T2, mouse EL4 type ASCT2-myc/His (mouse/human chimeric ASCT2), expressed on CHO cells (human/mouse chimera, UniProt Q15758 1-541); assay: flow cytometry on mEL4/CHO cells; '+' = presence of reactivity
T2 construct: also called mEL4/CHO; mEL4
T2 sequence: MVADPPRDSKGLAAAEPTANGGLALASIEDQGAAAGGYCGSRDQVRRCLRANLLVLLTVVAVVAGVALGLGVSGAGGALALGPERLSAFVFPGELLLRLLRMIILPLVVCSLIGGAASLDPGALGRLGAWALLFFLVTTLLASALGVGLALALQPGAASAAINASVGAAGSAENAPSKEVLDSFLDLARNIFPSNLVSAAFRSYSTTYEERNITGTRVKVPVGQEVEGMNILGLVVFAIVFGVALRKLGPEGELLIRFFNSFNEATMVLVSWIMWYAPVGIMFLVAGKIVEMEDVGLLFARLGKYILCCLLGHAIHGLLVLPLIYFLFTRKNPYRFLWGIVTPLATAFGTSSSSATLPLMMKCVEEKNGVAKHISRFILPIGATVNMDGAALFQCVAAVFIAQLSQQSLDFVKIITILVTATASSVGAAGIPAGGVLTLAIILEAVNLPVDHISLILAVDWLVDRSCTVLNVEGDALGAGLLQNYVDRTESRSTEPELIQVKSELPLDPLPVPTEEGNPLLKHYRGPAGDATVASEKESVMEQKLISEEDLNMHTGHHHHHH
Experimental: (§1) Using the mouse ASCT2/CHO and mouse/human chimeric ASCT2/CHO cells constructed in Examples 10 and 11 and FITC-labeled anti-mouse immunoglobulin G (H+L) (manufactured by Dako) or ALEXA488-labeled anti-rat immunoglobulin G […] (manufactured by Invitrogen) as the secondary antibody, the reactivity of anti-ASCT2 monoclonal antibodies KM4008, KM4012 and KM4018 was measured in the same manner as in Example 9(1).
(§2) In Table 2, the symbols “+”, “−”, and “±” represent the presence of reactivity, the absence of reactivity, and the decrease in reactivity, respectively.

[3] = molecular target: T3, human ASCT2-myc/His (fusion protein in which myc/His was added to the C-terminal of human ASCT2), expressed … (human, UniProt Q15758 1-541); assay: flow cytometry on human ASCT2/CHO cells; '+' = presence of reactivity
T3 construct: Amino acid transporter with C-terminal myc/His tag, stably expressed in CHO/DG44 cells; cell lysates of these cells were used for Western blotting and immunoprecipitation; also called ASCT2/CHO; human ASCT2-myc/His gene-introduced CHO cell
T3 sequence: T2 sequence with K367N

[4] = molecular target: T4, mouse EL2 type ASCT2-myc/His (mouse/human chimeric ASCT2), expressed on CHO cells (human/mouse chimera); assay: flow cytometry on mEL2/CHO cells; '-' represents the absence of reactivity
T4 construct: also called mEL2/CHO; mEL2
T4 chain: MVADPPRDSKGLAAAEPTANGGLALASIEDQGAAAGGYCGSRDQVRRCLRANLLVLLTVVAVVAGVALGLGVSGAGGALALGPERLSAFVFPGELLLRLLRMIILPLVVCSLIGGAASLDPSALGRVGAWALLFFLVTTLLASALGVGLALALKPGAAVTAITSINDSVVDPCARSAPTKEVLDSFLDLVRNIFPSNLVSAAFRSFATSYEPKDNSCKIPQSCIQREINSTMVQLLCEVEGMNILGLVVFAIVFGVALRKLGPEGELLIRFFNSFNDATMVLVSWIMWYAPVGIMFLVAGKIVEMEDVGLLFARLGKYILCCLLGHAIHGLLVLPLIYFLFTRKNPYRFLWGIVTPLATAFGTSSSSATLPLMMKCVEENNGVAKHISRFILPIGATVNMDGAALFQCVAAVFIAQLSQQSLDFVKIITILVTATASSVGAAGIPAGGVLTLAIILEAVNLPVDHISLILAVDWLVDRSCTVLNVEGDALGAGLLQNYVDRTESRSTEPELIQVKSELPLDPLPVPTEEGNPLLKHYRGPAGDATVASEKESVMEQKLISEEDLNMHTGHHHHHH
Experimental: as §1, §2

[5] = molecular target: T5, mouse ASCT2-myc/His, expressed on CHO cells (mouse, UniProt P51912 1-553); assay: flow cytometry on mouse ASCT2/CHO cells; '-' represents the absence of reactivity
T5 construct: also called mouse ASCT2/CHO
T5 sequence: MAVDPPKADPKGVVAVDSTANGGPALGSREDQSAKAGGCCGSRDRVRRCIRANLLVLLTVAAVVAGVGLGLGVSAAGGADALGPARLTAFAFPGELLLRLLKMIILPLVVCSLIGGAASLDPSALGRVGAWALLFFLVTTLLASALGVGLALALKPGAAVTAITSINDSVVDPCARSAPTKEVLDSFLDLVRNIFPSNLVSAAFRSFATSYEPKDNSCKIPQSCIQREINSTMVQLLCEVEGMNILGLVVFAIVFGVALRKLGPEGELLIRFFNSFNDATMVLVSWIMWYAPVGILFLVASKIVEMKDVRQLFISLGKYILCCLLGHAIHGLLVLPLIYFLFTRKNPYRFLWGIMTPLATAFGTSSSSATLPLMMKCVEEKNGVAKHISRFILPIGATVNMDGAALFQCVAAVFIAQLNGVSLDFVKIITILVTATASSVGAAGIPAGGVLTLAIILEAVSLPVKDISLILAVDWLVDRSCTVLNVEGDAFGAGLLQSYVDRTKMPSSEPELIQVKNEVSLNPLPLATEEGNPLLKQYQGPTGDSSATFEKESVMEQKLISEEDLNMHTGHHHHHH
Experimental: as §1, §2

B1: anti-ASCT2 monoclonal antibody KM4018 (antibody, rat IgG2a, V domains shown)
VH: EVQLVESGGGLVQSGRSIRLSCAASGFSFSNYYMAWVRQAPSKGLEWVASITKGGGNTYYRDSVKGRFTFSRDNAKSTLYLQMDSLRSEDTATYYCARQVTIAAVSTSYFDSWGQGVMVTVSS
VL: DIVLTQSPALAVSLGQRATISCKTNQKVDYYGNSYVYWYQQKPGQQPKLLIYLASNLASGIPARFSGRGSGTDFTLTIDPVEADDTATYYCQQSRNLPYTFGAGTKLELKR
notes: rat IgG2a, kappa
B1: binds [1]; binds [2]; binds [3]. B1: no binding [4]; no binding [5].
